This assay deals with T1, wild-type (polymerization-competent) yeast αβ-tubulin, P09733;P02557.
T1 chain 1: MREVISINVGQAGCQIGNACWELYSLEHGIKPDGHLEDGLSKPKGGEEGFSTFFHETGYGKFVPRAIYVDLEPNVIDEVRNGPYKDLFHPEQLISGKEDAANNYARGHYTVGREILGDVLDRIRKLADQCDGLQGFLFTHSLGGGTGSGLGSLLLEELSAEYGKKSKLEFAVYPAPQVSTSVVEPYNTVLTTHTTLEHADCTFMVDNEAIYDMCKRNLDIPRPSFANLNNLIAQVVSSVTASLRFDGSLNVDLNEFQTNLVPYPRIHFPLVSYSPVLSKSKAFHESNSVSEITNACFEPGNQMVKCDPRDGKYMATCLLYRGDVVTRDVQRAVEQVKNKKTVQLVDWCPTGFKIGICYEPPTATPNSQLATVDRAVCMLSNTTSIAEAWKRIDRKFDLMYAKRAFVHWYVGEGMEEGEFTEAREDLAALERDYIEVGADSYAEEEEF
T1 chain 2: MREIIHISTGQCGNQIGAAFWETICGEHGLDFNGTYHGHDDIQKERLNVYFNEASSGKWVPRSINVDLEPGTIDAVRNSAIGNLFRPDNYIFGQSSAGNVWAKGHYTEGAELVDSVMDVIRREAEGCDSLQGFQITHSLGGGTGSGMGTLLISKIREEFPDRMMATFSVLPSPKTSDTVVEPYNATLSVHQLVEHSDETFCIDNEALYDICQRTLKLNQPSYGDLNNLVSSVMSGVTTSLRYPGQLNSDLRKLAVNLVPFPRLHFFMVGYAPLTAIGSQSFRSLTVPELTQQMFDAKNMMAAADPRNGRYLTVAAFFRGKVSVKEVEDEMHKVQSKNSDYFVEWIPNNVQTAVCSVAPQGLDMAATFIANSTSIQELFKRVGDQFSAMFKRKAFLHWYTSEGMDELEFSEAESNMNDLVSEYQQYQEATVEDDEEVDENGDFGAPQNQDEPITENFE
The assay can be described thus: sedimentation velocity AUC. Conditions: chain shown with the change; [TOG1-TOG2] = 1.7 µM; [αβ] = 0.35 µM.

B1: TOG1-TOG2(1-560) of Stu2p, P46675 W341A (protein)
chain: MSGEEEVDYTTLPLEERLTYKLWKARLEAYKELNQLFRNSVGDISRDDNIQIYWRDPTLFAQYITDSNVVAQEQAIVALNSLIDAFASSSLKNAHNITLISTWTPLLVEKGLTSSRATTKTQSMSCILSLCGLDTSITQSVELVIPFFEKKLPKLIAAAANCVYELMAAFGLTNVNVQTFLPELLKHVPQLAGHGDRNVRSQTMNLIVEIYKVTGNNSDLLEEILFKKLKPIQVKDLHKLFAKVGDEPSSSKMLFEWEKRELEKKRSQEEEARKRKSILSNDEGEYQIDKDGDTLMGMETDMPPSKQQSGVQIDTFSMLPEETILDKLPKDFQERITSSKAKDRVEALEEFWDSVLSQTKKLKSTSQNYSNLLGIYGHIIQKDANIQAVALAAQSVELICDKLKTPGFSKDYVSLVFTPLLDRTKEKKPSVIEAIRKALLTICKYYDPLASSGRNEDMLKDILEHMKHKTPQIRMECTQLFNASMKEEKDGYSTLQRYLKDEVVPIVIQIVNDTQPAIRTIGFESFAILIKIFGMNTFVKTLEHLDNLKRKKIEETVKTL
Molecule B1 yielded an other: sedimentation coefficient of the TOG1-TOG2:αβ-tubulin complex (s20,w) of 7.1 S.

The values are drawn from paper PMC4145800.
